± gives the uncertainty stated by the source.
Assay: amyloid nucleation score (Sup35N fusion, yeast selection) (log enrichment); library NNK1; higher = more nucleation; inactive = no reads after selection
Method in brief: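 Plasmid inserts were Illumina-sequenced at input and output from psi-negative yeast expressing Sup35N fused to peptides of 20 random codons. The yeast were induced with 100 μM copper sulfate for 24 hours and grown 7 days at 30°C on medium lacking adenine and uracil, and sequences with under 100 input reads were excluded. Nucleation score is the DiMSum log enrichment of output over input reads, centred on the mode score of non-aggregating sequences.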

Substance | amyloid nucleation score
DCRQTAKHFPETSDNLYRLT | -0.2 ± 0.28
DCYREVSYFKFQNTKGSGSW | 3.33 ± 0.14
DDGPLWRMKEMCLVTVRGSE | 0.91 ± 0.29
DDKLLRVLFLMCSPYYTIIG | -0.065 ± 0.22
DDLQCITLRFTRDASRGVSL | 0.843 ± 0.84
DDVGSTRYTTMGEACQGRPA | -1.13 ± 0.8
DDWIVRHCFNCLSVWMYLRY | 0.257 ± 0.9
DEDNFVRSHVNPLYLTSADD | 0.609 ± 0.83
DEGRSTQSVVCLVMEVNSDR | 0.411 ± 0.48
DEWCVG | 0.017 ± 0.82
DEWSNKHCSQNTALCSLWAT | 1.43 ± 0.2
DFARQSSHPETWSSGDLSHS | 0.239 ± 0.96
DFECILLGCFGLDLPVTGIR | 2.27 ± 0.16
DFIKYAFSWE | -0.347 ± 0.36
DFIVS | -0.198 ± 0.3
DFRAIS | 0.576 ± 0.79
DFWMSRKYLNVSMQ | 3.98 ± 0.1
DFYFYKLSLIFKSAFRWFPV | -0.359 ± 1.2
DGEAPKGSTGWTCGRVNERD | -0.125 ± 0.6
DGHKGEDSMAKLNFIFRLYS | -0.33 ± 0.38
DGICNW | 2.61 ± 0.12
DGQVSAVESMLRRWDSPVKG | 0.18 ± 1

Substance | amyloid nucleation score
DGRFLCFHIGSLMSGWDGRQ | -0.783 ± 0.75
DGRRFFYQRGDICLSMLHNH | -1.58 ± 1.7
DGSYTTRGRGHGESGRSGCW | 0.17 ± 0.42
DHASIGMALYCFCYQVSFIL | 0.391 ± 0.42
DHFKG | -0.044 ± 0.84
DHFPARKVGCTILTCMMQKL | 0.697 ± 0.63
DIKGRLLWGDKARLNEVPLR | 1.04 ± 0.57
DILVYRTLSPCVLSCSYFSG | -1.25 ± 0.77
DIPVSHGAYL | -0.378 ± 0.84
DIRDYGLWWDKWAEGC | 0.459 ± 0.3
DIRLTMRVSSLSM | 0.566 ± 0.31
DITYVYFSVAELLLMFLTLY | 1.33 ± 0.48
DIVPSTPELFI | -0.505 ± 0.59
DKAGNGQNGATGWRTMALSG | 0.777 ± 1.2
DKDDEIY | 1.42 ± 0.76
DKISWLSHQLRWDSRMSNLE | 1.1 ± 0.66
DKRYGDEVRHTGRWSRSVVW | 0.013 ± 0.42
DKSNRTCNWQFNNICCL | 8.386 ± 0.049
DKTMVGTPGLTHMVVDGVE | 0.12 ± 0.84
DKWLPIFTGGQLLSNLIFFC | 0.832 ± 0.18
DLCIFIYFVISVRVLYRISN | inactive
DLFRSSLSPVSLLHSDMDMG | 0.12 ± 0.41

Substance | amyloid nucleation score
DLFYDGCSRFLVMSKGTALV | -0.412 ± 1.2
DLIAARLAALF | -0.964 ± 0.39
DLIQLGLGQVSDPLGTWWSG | 2.29 ± 0.3
DLIWPRTRYRSTVD | inactive
DLLFMLRGAWAKSFMMGSVG | 0.059 ± 0.43
DLLQLYSDGTRGYVFFLLMK | inactive
DLLYERTYRSVVISLRTLAG | 0.816 ± 0.92
DLNDMAIRV | 0.004 ± 0.31
DLPLDS | 0.16 ± 0.72
DLPWSMLKVL | 0.689 ± 1.2
DLSSESHVFLCVAL | -0.711 ± 2.1
DMEKVV | 0.408 ± 0.6
DMVYYNEIPKGRYQHPAG | 0.593 ± 0.56
DNGGFDPWWCWNRLRWWRGG | 0.248 ± 0.38
DNINKLSWTRSILELG | -0.452 ± 0.62
DNRFERAVWVPHL | 3.78 ± 0.12
DNSPSSWFDWDLGEIGVRVE | -0.469 ± 1
DNVLALDGWNLINCLTT | 0.155 ± 0.37
DPGPLARKVGRRIEAAIMVA | 0.992 ± 0.49
DPICYKRNKANVYLGRFGYR | 0.7 ± 0.66
DPVVFDSWELLKQWISCKRC | 0.226 ± 1.6
DPYMNWIVLYSGVRHWNGVM | 0.056 ± 1.4

Substance | amyloid nucleation score
DQYIGGFGFNYETFVTRNLV | -0.861 ± 0.49
DRCNDAVGRKRRRTKMRGLY | 0.457 ± 0.45
DRLWKSTWKGMTRLMRRSAE | -0.968 ± 0.48
DRMPRFLVHENVYTVPERVW | inactive
DRRMSTTVMGRFVWRDRYVG | 0.526 ± 0.65
DRTRLVSHHTRIVRRWAHVY | 0.064 ± 0.65
DRVANNLMD | -0.344 ± 0.26
DRYIREISNTATCFALLL | 4.29 ± 0.083
DSLLWVMKYSMVSFYMCDYR | -0.668 ± 0.97
DSQGFMRVISLMFVDGSLLA | 0.591 ± 0.54
DSRFHSLGVLAHMPRDCNCG | 0.853 ± 0.86
DSRKSRYGSWVLRWS | inactive
DSSLRDKYVTKNVFIFSMSG | 4.71 ± 0.063
DSTFHMDYY | -0.121 ± 0.5
DSVYRLFICIVISALTGWWK | 0.258 ± 0.62
DTECRGMKVELHRTHRMGKF | -0.179 ± 0.62
DTLEVTFGYYDCYGMYKTIT | -1.18 ± 1.7
DTLLKF | 0.916 ± 0.74
DTYITGSHCHFYMNCWKA | 8.519 ± 0.079
DVFRML | inactive

Reference: the supplement of paper PMC12042874
